B2: GST-Sec23 (natural protein, S. cerevisiae)
chain: MDFETNEDINGVRFTWNVFPSTRSDANSNVVPVGCLYTPLKEYDELNVAPYNPVVCSGPHCKSILNPYCVIDPRNSSWSCPICNSRNHLPPQYTNLSQENMPLELQSTTIEYITNKPVTVPPIFFFVVDLTSETENLDSLKESIITSLSLLPPNALIGLITYGNVVQLHDLSSETIDRCNVFRGDREYQLEALTEMLTGQKPTGPGGAASHLPNAMNKVTPFSLNRFFLPLEQVEFKLNQLLENLSPDQWSVPAGHRPLRATGSALNIASLLLQGCYKNIPARIILFASGPGTVAPGLIVNSELKDPLRSHHDIDSDHAQHYKKACKFYNQIAQRVAANGHTVDIFAGCYDQIGMSEMKQLTDSTGGVLLLTDAFSTAIFKQSYLRLFAKDEEGYLKMAFNGNMAVKTSKDLKVQGLIGHASAVKKTDANNISESEIGIGATSTWKMASLSPYHSYAIFFEIANTAANSNPMMSAPGSADRPHLAYTQFITTYQHSSGTNRIRVTTVANQLLPFGTPAIAASFDQEAAAVLMARIAVHKAETDDGADVIRWLDRTLIKLCQKYADYNKDDPQSFRLAPNFSLYPQFTYYLRRSQFLSVFNNSPDETAFYRHIFTREDTTNSLIMIQPTLTSFSMEDDPQPVLLDSISVKPNTILLLDTFFFILIYHGEQIAQWRKAGYQDDPQYADFKALLEEPKLEAAELLVDRFPLPRFIDTEAGGSQARFLLSKLNPSDNYQDMARGGSTIVLTDDVSLQNFMTHLQQVAVSGQA

Assay [1] addresses B2. The assay can be described thus: pull-down.
The target of assay [2] is Sec13/Sec31 outer coat complex (wild type, His tag removed) (S. cerevisiae, UniProt Q04491 1-297; P38968 1-1273). The assay can be described thus: pull-down.

The values that follow come from publication doi:10.1101/2020.04.15.043356 (bioRxiv, 2020).

Sec13/Sec31 outer coat complex (wild type, His tag removed), sequence (Q04491 whole entry, chain 1 of 2): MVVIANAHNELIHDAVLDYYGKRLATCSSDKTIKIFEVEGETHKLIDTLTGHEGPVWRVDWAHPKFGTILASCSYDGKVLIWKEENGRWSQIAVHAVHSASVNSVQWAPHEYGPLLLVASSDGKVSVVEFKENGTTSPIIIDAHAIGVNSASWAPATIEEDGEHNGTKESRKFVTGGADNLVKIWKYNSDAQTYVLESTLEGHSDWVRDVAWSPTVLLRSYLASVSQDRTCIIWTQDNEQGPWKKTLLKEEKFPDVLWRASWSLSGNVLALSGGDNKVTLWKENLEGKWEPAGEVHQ
Sec13/Sec31 outer coat complex (wild type, His tag removed), sequence (P38968 whole entry, chain 2 of 2): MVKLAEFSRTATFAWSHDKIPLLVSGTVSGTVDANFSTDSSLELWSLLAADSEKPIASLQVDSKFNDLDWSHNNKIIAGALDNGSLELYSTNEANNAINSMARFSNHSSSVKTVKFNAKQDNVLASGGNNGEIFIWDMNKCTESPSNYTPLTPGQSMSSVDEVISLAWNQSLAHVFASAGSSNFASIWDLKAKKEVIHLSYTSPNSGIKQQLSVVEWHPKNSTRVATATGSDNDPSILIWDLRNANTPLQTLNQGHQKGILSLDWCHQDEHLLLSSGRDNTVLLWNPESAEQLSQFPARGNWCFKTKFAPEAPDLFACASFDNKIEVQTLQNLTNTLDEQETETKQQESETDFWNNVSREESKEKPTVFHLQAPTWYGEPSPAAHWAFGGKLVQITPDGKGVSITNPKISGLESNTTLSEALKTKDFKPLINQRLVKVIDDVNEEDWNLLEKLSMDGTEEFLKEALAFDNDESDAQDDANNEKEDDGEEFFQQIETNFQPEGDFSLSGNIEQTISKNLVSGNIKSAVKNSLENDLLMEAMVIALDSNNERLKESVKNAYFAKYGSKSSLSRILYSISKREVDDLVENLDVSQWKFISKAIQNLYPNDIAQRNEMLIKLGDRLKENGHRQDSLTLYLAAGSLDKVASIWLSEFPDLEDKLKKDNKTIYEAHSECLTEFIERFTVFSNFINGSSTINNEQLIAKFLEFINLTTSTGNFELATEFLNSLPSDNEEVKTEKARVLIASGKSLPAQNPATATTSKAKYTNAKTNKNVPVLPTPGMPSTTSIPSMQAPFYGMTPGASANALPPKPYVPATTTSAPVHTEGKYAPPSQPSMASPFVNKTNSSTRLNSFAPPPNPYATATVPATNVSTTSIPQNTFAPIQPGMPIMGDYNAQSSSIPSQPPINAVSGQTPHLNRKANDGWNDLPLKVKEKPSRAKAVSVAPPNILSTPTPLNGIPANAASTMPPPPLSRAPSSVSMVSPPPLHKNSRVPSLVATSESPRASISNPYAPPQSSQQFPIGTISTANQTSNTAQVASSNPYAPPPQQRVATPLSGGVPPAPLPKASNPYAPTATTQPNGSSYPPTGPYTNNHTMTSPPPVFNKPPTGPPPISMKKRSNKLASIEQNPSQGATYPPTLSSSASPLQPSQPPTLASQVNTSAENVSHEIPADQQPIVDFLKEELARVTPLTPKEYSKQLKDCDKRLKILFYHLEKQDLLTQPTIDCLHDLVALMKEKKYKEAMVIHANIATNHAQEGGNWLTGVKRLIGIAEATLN

B1: 6xHis-Grh1 (natural protein, S. cerevisiae, UniProt Q04410 1-372, looked up)
chain: MFRIAKNLVRTFEQSVQDTLALSQDSSNLDAFFQSIPPNLLSAQLESPVDAVSEGVKHTNVNETLSGLRIVWVDEMQFQLQSFFDYIVGFNDDPVPVVSNQHGFSYPDYRRITSIFNEHCGRTLKVNIWSAKGGTFRDEYISIISKESDDLDDVSLNHDERRPSSGEAHQFQALGFKVQWTPLIASTFTYHILNVNIPDGPAQSAGLIPDEDYIIGCQDGLLATGGETLLQDIVRSRANYDLVLYVYNKVSDCVRPITVHIGPDGRLGCNVGYGFLHRIPTVKHCPQQAQQQGQDDNPVPVPVPVESETAFVPSAFTAPPVPTKKKSKNKKGTQPLAMDDYFNEGRDKSSTAAKSAESDILAPPPQKQSSSD
With B1, the binding result in assay [1] is given as “binds”.

As to B2, the binding result in assay [2] is “binds”.
